In article PMC4051505, “Crystal structure of human CRMP-4: correction of intensities for lattice-translocation disorder” (Acta Crystallographica Section D: Biological Crystallography, 2014):

Key:
[1] = biological target: the molecule itself; assay: crystal structure; CRMP-4 (1-570) crystal form A, space group P21, twinned; 15%(w/v) PEG 6000, 100 mM Na HEPES pH 7.5, 100 mM KCl; protein 15 mg/ml; data at 100 K
[2] = biological target: the molecule itself; assay: crystal structure; CRMP-4 ΔC (13-490), space group P21; 30%(w/v) PEG 3350, 100 mM sodium tartrate, 100 mM bis-tris propane pH 6.5; protein 18 mg/ml; data at 100 K

Protein	stoichiometry N [1]	stoichiometry N [2]
human CRMP-4 (collapsin response mediator protein 4), full-length, residues 1-570 (natural protein, CRMP-4 (DPYSL3), human, residues 1-570 of NP_001378.1; only residues 12-496/497 (crystal form A) or 12-499 (form B) are resolved in the electron density; The vector pNIC28-Bsa4 extends the coding region by 23 N-terminal residues (hexahistidine tag and TEV site); The tag was deliberately not cleaved for the full-length protein; Homotetramer in both crystal forms and in solution; also called …) not shown	4	
truncated human CRMP-4 (CRMP-4 ΔC), residues 13-490 (domain or fragment, CRMP-4 (DPYSL3), human, residues 13-490 of NP_001378.1; The His tag was removed with TEV protease; A serine from the TEV cleavage site is visible in chains C and D of the structure; Judging from the primer, Ser-Met probably remains before residue 13; Tetramer in the crystal, lower oligomers in solution; also called CRMP-4 ΔC (13-490); source: E. coli BL21(DE3)pLysS, purified (Ni-NTA, TEV …)) not shown		4
